Data: US9889184B2 (priority 2008, dated 2018)
No end group written: not given here.

Assays:
Fusarium graminearum = format: cell-based; conditions: for fungicidal activity in combination with NaD1: F. graminearum, conditions of the fungal bioassay; for fungicidal activity of the proteinase inhibitor on its own: not combined with NaD1, F. graminearum; for effect on hyphal growth: concentrations up to 18.5 uM in the absence of NaD1
[1] = tested on: Fusarium oxysporum f. sp. vasinfectum (Fov); assay: Growth inhibition of Fov by NaD1 (microtitre OD595); format: cell-based
Experimental: Lyophilized NaD1 (500 μg) was dissolved in 400 μL of stock buffer (200 mM Tris-HCl pH 8.0, 2 mM EDTA, 6 M guanidine-HCl, 0.02% [v/v] Tween-20). Reduction buffer (stock buffer with 15 mM dithiothreitol [DTT]) was added (44 μL) followed by a 4.5 h incubation at 40° C. The reaction mixture was cooled to RT before iodoacetic acid (0.5 M in 1 M NaOH, 55 μL) was added and the incubation continued in the dark for 30 min at RT. A Nanosep omega (Registered) spin column (3K molecular weight cut off, PALL Life Sciences) was used to remove salts, DTT and iodoacetic acid and the protein concentration was determined using the BCA protein assay (Pierce). The effect of reduced and alkylated NaD1 (NaD1R&A) on the growth of Fusarium oxysporum (Fov) was measured as described herein.
Antifungal activity against Fusarium oxysporum f. sp. vasinfectum (Fov, Australian isolate VCG01111 isolated from cotton; from Wayne O'Neill, Farming Systems Institute, DPI, Queensland, Australia), Thielaviopsis basicola (gift from David Nehl, NSW DPI, Narrabri, Australia), Verticillium dahliae (from Helen McFadden, CSIRO Plant Industry, Black Mountain, Australia), Leptosphaeria maculans (from Barbara Howlett, University of Melbourne, Victoria, Australia) and Aspergillus nidulans (from Michael Hynes, University of Melbourne) was assessed essentially as described in Broekaert et al, 1990. Spores were isolated from sporulating cultures growing in either half-strength potato dextrose broth (PDB) (Fov and T. basicola), Czapeck-Dox Broth (V. dahliae) (Difco Laboratories) or 10% (v/v) clarified V8 medium (L. maculans and A. nidulans) by filtration through sterile muslin. Spore concentrations were determined using a hemocytometer and adjusted to 5×10^4 spores/mL in the appropriate growth medium. Spore suspensions (80 μL) were added to the wells of sterile 96-well flat-bottomed microtitre plates along with 20 μL of filter-sterilized (0.22 μm syringe filter; Millipore) NaD1, or water to give final protein concentrations of 0-10 μM. The plates were shaken briefly and placed in the dark at 25° C. without shaking until the optical density at 595 nm of the water control reached approximately 0.2 (24-72 h depending on growth rate). Hyphal growth was estimated by measuring the optical density at 595 nm using a microtitre plate reader (SpectraMax Pro M2; Molecular Devices). Each test was performed in quadruplicate.

[2] = tested on: Fusarium oxysporum species; conditions: cited from earlier work
Fov hyphae = assay: Uptake of NaD1 into hyphae (immunogold EM, bimane fluorescence, immunoblot); format: cell-based, Fusarium oxysporum f. sp. vasinfectum; conditions: fluorescence microscopy, live hyphae
Experimental: Fov hyphae were grown as described above prior to the addition of NaD1 (10 μM final concentration) to 1 mL of the culture. Samples (100 μL) were collected after 0, 5, 10, 30, 60, 90 and 120 min. Hyphae were collected by centrifugation (10 min, 10,000×g) and the supernatant was stored at −20° C. for analysis. Hyphae were washed (2×10 min) with KCl (0.6 M) to remove any ionically bound protein before they were resuspended in 50 mM CAPS buffer (pH 10.0) containing 10 mM DTT for 20 min. Hyphae were collected by centrifugation and the supernatant, containing cell wall proteins, was collected for analysis. The pellet (containing cells) was resuspended in water and the cells were lysed using glass beads (Sigma, 60 mg) and vortexing (3×10 min). Cellular debris was removed by centrifugation (16,000×g, 10 min) and the supernatant collected for analysis. All samples were then analyzed by SDS-PAGE and immunoblotting.
Fov hyphae were grown for 18 h in half-strength PDB (5 mL) with vigorous shaking at 25° C. from a starting spore suspension of 5×10^4/mL. Hyphae were then treated with 2 μM NaD1 or an equivalent volume of water for 2 h at RT with gentle agitation, and were washed twice in 0.6 M KCl and three times in PBS before fixation in 4% (w/v) paraformaldehyde in PBS for 1 h at 4° C. Hyphae were again washed three times in PBS before dehydration in a standard ethanol series (15 min each, 50%, 70% and 90% ethanol, 3×15 min 100% ethanol). Hyphae were then infiltrated with LR White resin (ProSciTech) for 1 h at RT, followed by 18 h at 4° C., 1 h at RT and 24 h at 60° C. Fresh LR White resin was used at each step. Ultrathin sections were cut and placed on Formvar coated gold grids.
Grids were blocked with PBS containing 8% (w/v) BSA and 1% (v/v) Triton X-100 for 1 h and labeled with α-NaD1 antibodies (2 μg/mL in blocking buffer) for 1 h. Grids were washed in blocking buffer (3×10 min) and labeled with 15 nm gold particle labeled goat α-rabbit IgG antibodies (ProSciTech diluted 1 in 20 for 1 h. Grids were washed again in blocking solution (3×10 min) followed by water (15 min) before being air-dried. A JEOL JEM2010HC x e80 KV transmission electron microscope was used to examine labeled grids. Pictures were taken on Kodak EM film (ProSciTech) and developed in a dark room before scanning on a Hewlett Packard Scanjet 5P scanner.
Hyphae grown for 18 h as described were treated with NaD1-bimane (2 μM) for between 10 min and 6 h. Hyphae were then visualized by fluorescence microscopy using an MWU filter (excitation wavelength of 330-385 nm).

cathepsin L = biological target: T1, cathepsin L (Homo sapiens, UniProt P07711); assay: Cysteine proteinase inhibitory activity, ZFR-MCA substrate; format: biochemical; conditions: bacterially expressed cystatin, FIG. 1E
T1 construct: purchased Sigma
Experimental: (§1) The cysteine proteinase inhibitory activity of bacterially expressed NaCys1, NaCys3 and NaCys4 was determined using the enzymes papain and cathepsin L (Sigma). The assay mixtures (final volume 250 uL) contained papain or cathepsin L (50 nM final concentration), 100 uL of ZFR-MCA substrate (0.2 mM, Bachem, Melo et al., 2001), 100 uL of reaction buffer (0.2 M sodium acetate, 4 mM EDTA, 8 mM DTT, pH 5.5) and 50 uL of cystatin (for 0-20 uM final concentration). Released fluorescence was measured at 460 nm (excitation at 340 nm) after a 10 or 50 min incubation for papain and cathepsin L, respectively, at 37° C.

papain = biological target: T2, papain (Carica papaya, UniProt P00784); assay: as above; format: biochemical; conditions: bacterially expressed cystatin, FIG. 1D
T2 construct: purchased Sigma
T2 sequence (P00784 134-345): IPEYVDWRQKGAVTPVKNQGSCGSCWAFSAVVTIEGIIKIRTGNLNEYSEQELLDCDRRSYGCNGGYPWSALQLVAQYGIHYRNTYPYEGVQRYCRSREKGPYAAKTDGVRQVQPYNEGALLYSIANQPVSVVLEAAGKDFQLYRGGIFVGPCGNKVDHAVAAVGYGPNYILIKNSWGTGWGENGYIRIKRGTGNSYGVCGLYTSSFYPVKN
Experimental: as §1

T1 sequence (P07711 114-333, species assumed): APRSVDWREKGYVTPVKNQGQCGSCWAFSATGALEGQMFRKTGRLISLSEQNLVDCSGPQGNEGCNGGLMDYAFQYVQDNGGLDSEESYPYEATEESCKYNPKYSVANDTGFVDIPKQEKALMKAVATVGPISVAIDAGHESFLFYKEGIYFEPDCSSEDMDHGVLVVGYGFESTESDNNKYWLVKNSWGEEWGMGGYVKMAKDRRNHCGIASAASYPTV

CC(C)C[C@H](NC(=O)[C@H]1O[C@@H]1C(=O)O)C(=O)NCCCCN=C(N)N [E64, reference compound]
fungicidal activity in combination with NaD1 (Fusarium graminearum): no fungicidal activity | fungicidal activity of the proteinase inhibitor on its own (Fusarium graminearum): no fungicidal activity

NaD1 labeled with FITC: NaD1 labeled with FITC via reactive amine groups (RECKTESNTFPGICITKPPCRKACISEKFTDGHCSKILRRCLCTKPC; ends and bridges not checked; also: FITC label via reactive amine groups (position not given here); UniProt Q8GTM0 26-72, looked up)
antifungal activity of fluorophore-labeled NaD1 [1]: not biologically active

PhD1A: defensin isolated from petunia (Petunia hybrida) flowers (SEQ ID NO:24) (ATCKAECPTWDGICINKGPCVKCCKAQPEKFTDGHCSKILRRCLCTKPC; Petunia hybrida (PhD1A))
activity in inhibiting Fusarium oxysporum species [2]: active in inhibiting

Tomdef2: defensin isolated from tomato flowers (SEQ ID NO:22) (QQICKAPSQTFPGLCFMDSSCRKYCIKEKFTGGHCSKLQRKCLCTKPC; Solanum lycopersicum var. cerasiforme (Tomdef2))
activity in inhibiting Fusarium oxysporum species [2]: active in inhibiting

NaD1-bimane: NaD1 labeled with the fluorophore bimane amine at carboxyl residues (RECKTESNTFPGICITKPPCRKACISEKFTDGHCSKILRRCLCTKPC; ends and bridges not checked; also: bimane amine fluorophore label at carboxyl residues (position not given here); UniProt Q8GTM0 26-72, looked up)
antifungal activity of fluorophore-labeled NaD1 [1]: retained full antifungal activity | time at which internalization was observed (Fov hyphae): 20 to 30 min

B1: chicken egg white cystatin: cysteine proteinase inhibitor (12.7 kDa), Sigma C8917 (protein, UniProt P01038 24-139, looked up)
Cystatin: SEDRSRLLGAPVPVDENDEGLQRALQFAMAEYNRASNDKYSSRVVRVISAKRQLVSGIKYILQVEIGRTTCPKSSGDLQSCEFHDEPEMAKYTTCTFVVYSIPWLNQIKLLESKCQ
fungicidal activity in combination with NaD1 (Fusarium graminearum): no fungicidal activity | fungicidal activity of the proteinase inhibitor on its own (Fusarium graminearum): no fungicidal activity

B2: Soybean trypsin inhibitor Type II-S: serine proteinase inhibitor (21 kDa), Sigma T9128 (protein, UniProt P01070 25-205, looked up)
Trypsin inhibitor A: DFVLDNEGNPLENGGTYYILSDITAFGGIRAAPTGNERCPLTVVQSRNELDKGIGTIISSPYRIRFIAEGHPLSLKFDSFAVIMLCVGIPTEWSVVEDLPEGPAVKIGENKDAMDGWFRLERVSDDEFNNYKLVFCPQQAEDDKCGDIGISIDHDDGTRRLVVSKNKPLVVQFQKLDKESL
fungicidal activity in combination with NaD1 (Fusarium graminearum): no fungicidal activity | fungicidal activity of the proteinase inhibitor on its own (Fusarium graminearum): no fungicidal activity

B3: PhD2: plant defensin from Petunia hybrida, accession Q8H6Q0 (protein)
chain: MARSICFFAVAILALMLFAAYETEAGTCKAECPTWEGICINKAPCVKCCKAQPEKFTDGHCSKILRRCLCTKPCATEEATATLANEVKTMAEALVEEDMME
modifications: Petunia hybrida (PhD2Full length)
activity in inhibiting Fusarium oxysporum species [2]: active in inhibiting

B4: NaCys1: cystatin from Nicotiana alata, bacterially expressed (SEQ ID NO:2) (protein)
chain: MATLGGIREAGGSENSLEINDLARFAVDEHNKKQNALLEFGKVVNVKEQVVAGTMYYITLEATEGGKKKAYEAKVWVKPWQNFKQLEDFKLIGDAASA
modifications: Nicotiana alata (NaCys1)
effect on hyphal growth (Fusarium graminearum): no effect on hyphal growth | inhibition of Cathepsin L (cathepsin L): better inhibitors of Cathepsin L than NaCys4 | inhibition of the cysteine proteinase papain (papain): strong inhibitors

B5: NaCys4: cystatin from Nicotiana alata (SEQ ID NO:8), tryptophan to arginine substitution at position 80 (protein)
chain: MANLGGIREAGGSENSLEINDLARFAVDEHNKKQNALLEFGKVVNVKEQVVAGTMYYITLEATEGGKKKAYEAKVWVKPRQNFKQLEDFKLIGDAASA
modifications: Nicotiana alata (NaCys4)
inhibition of the cysteine proteinase papain (papain): relatively poor inhibitor

B6: NaCys3: cystatin from Nicotiana alata, bacterially expressed (SEQ ID NO:6) (protein)
chain: MANLGGIREAGGSENSLEINDLARFAVDEHNKKQNALLEFGKVVNVKEQVVAGTMYYITLEATEGGKKKAYEAKVWVKPWQNFKQLEDFKLIGDAASA
modifications: Nicotiana alata (NaCys3)
effect on hyphal growth (Fusarium graminearum): no effect on hyphal growth | inhibition of Cathepsin L (cathepsin L): better inhibitors of Cathepsin L than NaCys4 | inhibition of the cysteine proteinase papain (papain): strong inhibitors
